We go through 7 molecules from patent US20250333497A1 (University of California, published 2025).

For test [1], the target named is T1, Full length PLXDC1 (PLXDC1-Full) (Homo sapiens (Human), UniProt Q8IUK5 19-500).
T1 construct: also called full PLXDC1 protein
T1 sequence: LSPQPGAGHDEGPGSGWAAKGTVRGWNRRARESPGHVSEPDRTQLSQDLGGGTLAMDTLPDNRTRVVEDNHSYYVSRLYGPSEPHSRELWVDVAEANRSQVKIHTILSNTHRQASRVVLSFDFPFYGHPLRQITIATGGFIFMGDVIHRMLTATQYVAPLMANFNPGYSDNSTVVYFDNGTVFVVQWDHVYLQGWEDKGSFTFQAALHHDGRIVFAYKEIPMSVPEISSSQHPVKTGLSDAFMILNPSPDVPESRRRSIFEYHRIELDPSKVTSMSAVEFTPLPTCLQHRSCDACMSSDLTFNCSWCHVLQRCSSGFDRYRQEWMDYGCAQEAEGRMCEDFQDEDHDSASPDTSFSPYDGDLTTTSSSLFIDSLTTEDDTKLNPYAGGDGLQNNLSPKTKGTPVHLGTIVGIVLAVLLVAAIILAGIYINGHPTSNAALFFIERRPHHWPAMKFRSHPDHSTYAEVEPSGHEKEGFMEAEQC
As to the kind of experiment: staining of transfected cells (FIG. 3-4). The text has this: (§1) Both full length PLXDC1 and Domain A deleted PLXDC1 (PLXDC1-dA) have an epitope tag on the N-terminus.

The target in test [2] is T2, domain A-deleted PLXDC1 (PLXDC1-dA) (Homo sapiens (Human), UniProt Q8IUK5 128-500).
T2 construct: also called mutant with Domain A deleted
The test is described as follows: staining of transfected cells (FIG. 3C-H).
Text: as §1

The target in test [3] is T2, domain A-deleted PLXDC1 (PLXDC1-dA). The test is described as follows: staining of transfected cells (FIG. 4A-H).
Text: as §1

B1: A002 (antibody, V domains shown)
VH: EVQLLESGGGLVQPGGSLRLSCAASGFTFKNYAMSWVRQAPGKGLEWVSAISASGGYTYYADSVKGRFTISRDNSKNTLYLQMNSLRAEDTAVYYCARGRWGAFDYWGQGTLVTVSS
VL: QSVLTQPPSVSGAPGQRVTISCTGSSSNIGSGYDVHWYQQLPGTAPKLLIYGNRNRPSGVPDRFSGSKSGTSASLAITGLQAEDEADYYCQSYDSSLKTWVFGGGTKLTVL
notes: VH/VL only; also called 4-A8
For the molecule B1, the binding result is given as “binds” in test [1] and “no binding” in test [2].

B2: A003 (antibody, V domains shown)
VH: QVQLVESGGGVVQPGRSLRLSCAASGFTFRDYGMHWVRQAPGKGLEWVAVISYHGRNEYYANSVKGRFTISRDNSKNTLYLQMNSLRAEDTAVYYCARGAYGDDFDVWGQGTLVTVSS
VL: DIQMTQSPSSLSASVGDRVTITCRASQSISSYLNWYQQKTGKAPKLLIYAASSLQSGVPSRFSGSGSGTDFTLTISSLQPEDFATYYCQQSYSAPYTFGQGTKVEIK
notes: VH/VL only; also called 5-E2
Regarding B2, the binding result in test [1] is listed as “binds”; in test [2], “no binding”.

B3: A005 (antibody, V domains shown)
VH: QVQLVESGGGVVQPGRSLRLSCAASGFTFSDYGMHWVRQAPGKGLEWVAVISYDGSRKYYANSVKGRFTISRDNSKNTLYLQMNSLRAEDTAVYYCARGSYSDGFDVWGQGTLVTVSS
VL: DIQMTQSPSSLSASVGDRVTITCRASQSISRYLNWYQQKTGKAPKLLIYGASSLQSGVPSRFSGSGSGTDFTLTISSLQPEDFATYYCQQSYSTPYTFGQGTKVEIK
notes: VH/VL only; also called 3-G6
As for B3, the binding result in test [1] is “binds”; in test [3] it was “no binding”.

B4: A004 (antibody, V domains shown)
VH: QVQLVESGGGVVQPGRSLRLSCAASGFTFSDYGMHWVRQAPGKGLEWVAVISYEGSNEYYADSVKGRFTISRDNSKNTLYLQMNSLRAEDTAVYYCARGSEGSGFDVWGQGTLVTVSS
VL: DIQMTQSPSSLSASVGDRVTITCRASQRISNYLNWYQQKPGKAPKLLIYAASSLQSGVPSRFSGSGSGTDFTLTISSLQPEDFATYYCQQSYSPPYTFGQGTKVEIK
notes: VH/VL only; also called 2-H2
Consider B4, for which the binding result in test [1] is “binds”; in test [3], “no binding”.

B5: A006 (antibody, V domains shown)
VH: QVQLVQSGAEVKKPGSSVKVSCKASGGTFSTEYISWVRQAPGQGLEWMGRIIPVLGITNYAQKFQGRVTITADESTSTAYMELSSLRSEDTAVYYCARHLGPPYLVTYSHGFDVWGQGTLVTVSS
VL: EIVMTQSPATLSVSPGERATLSCRASQSLGTNLAWYQQKPGQAPRLLIYGASTRATGIPARFSGSGSGTEFTLTISSLQSEDFAVYYCQQYYEAPPTFGQGTKVEIK
notes: VH/VL only; also called 3-G7
Turning to B5, the figures for the binding result in test [1] and in test [3] were “binds” and “no binding”, respectively.

B6: A007 (antibody, V domains shown)
VH: EVQLLESGGGLVQPGGSLRLSCAASGFTFRNYAMSWVRQAPGKGLEWVSSISGGGINTYYADSVKGRFTISRDNSKNTLYLQMNSLRAEDTAVYYCARVRSYSGPGYFDYWGQGTLVTVSS
VL: EIVMTQSPATLSVSPGDRATLSCRASRSVSSNLAWYQQKPGQAPRLLIYGASTRATGIPARFSGSGSGTEFTLTISSLQSEDFAVYYCQQYYNWPLTFGQGTKVEIK
notes: VH/VL only; also called 8-A7
With B6, the binding result was “binds” in test [1] and “no binding” in test [3].

B7: A001 (antibody, V domains shown)
VH: EVQLLESGGGLVQPGGSLRLSCAASGFTFSSYAMSWVRQAPGKGLEWVSTIYASGATTYYADSVKGRFTISRDNSKNTLYLQMNSLRAEDTAVYYCARLKLYHAAFDIWGQGTLVTVSS
VL: DIQMTQSPSSLSASVGDRVTITCRASQDISSYLNWYQQKPGKAPKLLIYTASSLQSGVPSRFSGSGSGTDFTLTISSLQPEDFATYYCQQSYSYPLTFGQGTKVEIK
notes: VH/VL only; also called 3-C11
As for B7, the binding result in test [1] is “binds”; in test [2], “no binding”.
